Measurements taken from patent publication US7687457B2, “Cyclic molecular framework and derivatives thereof” (The University of Queensland, priority 1999, dated 2010).
pEC50: −log10 of the molar value.

Biological target: N-type voltage-sensitive calcium channels (receptors in rat brain membrane) (rat) (UniProt Q02294)
Chain of UniProt Q02294 (Q02294 whole entry): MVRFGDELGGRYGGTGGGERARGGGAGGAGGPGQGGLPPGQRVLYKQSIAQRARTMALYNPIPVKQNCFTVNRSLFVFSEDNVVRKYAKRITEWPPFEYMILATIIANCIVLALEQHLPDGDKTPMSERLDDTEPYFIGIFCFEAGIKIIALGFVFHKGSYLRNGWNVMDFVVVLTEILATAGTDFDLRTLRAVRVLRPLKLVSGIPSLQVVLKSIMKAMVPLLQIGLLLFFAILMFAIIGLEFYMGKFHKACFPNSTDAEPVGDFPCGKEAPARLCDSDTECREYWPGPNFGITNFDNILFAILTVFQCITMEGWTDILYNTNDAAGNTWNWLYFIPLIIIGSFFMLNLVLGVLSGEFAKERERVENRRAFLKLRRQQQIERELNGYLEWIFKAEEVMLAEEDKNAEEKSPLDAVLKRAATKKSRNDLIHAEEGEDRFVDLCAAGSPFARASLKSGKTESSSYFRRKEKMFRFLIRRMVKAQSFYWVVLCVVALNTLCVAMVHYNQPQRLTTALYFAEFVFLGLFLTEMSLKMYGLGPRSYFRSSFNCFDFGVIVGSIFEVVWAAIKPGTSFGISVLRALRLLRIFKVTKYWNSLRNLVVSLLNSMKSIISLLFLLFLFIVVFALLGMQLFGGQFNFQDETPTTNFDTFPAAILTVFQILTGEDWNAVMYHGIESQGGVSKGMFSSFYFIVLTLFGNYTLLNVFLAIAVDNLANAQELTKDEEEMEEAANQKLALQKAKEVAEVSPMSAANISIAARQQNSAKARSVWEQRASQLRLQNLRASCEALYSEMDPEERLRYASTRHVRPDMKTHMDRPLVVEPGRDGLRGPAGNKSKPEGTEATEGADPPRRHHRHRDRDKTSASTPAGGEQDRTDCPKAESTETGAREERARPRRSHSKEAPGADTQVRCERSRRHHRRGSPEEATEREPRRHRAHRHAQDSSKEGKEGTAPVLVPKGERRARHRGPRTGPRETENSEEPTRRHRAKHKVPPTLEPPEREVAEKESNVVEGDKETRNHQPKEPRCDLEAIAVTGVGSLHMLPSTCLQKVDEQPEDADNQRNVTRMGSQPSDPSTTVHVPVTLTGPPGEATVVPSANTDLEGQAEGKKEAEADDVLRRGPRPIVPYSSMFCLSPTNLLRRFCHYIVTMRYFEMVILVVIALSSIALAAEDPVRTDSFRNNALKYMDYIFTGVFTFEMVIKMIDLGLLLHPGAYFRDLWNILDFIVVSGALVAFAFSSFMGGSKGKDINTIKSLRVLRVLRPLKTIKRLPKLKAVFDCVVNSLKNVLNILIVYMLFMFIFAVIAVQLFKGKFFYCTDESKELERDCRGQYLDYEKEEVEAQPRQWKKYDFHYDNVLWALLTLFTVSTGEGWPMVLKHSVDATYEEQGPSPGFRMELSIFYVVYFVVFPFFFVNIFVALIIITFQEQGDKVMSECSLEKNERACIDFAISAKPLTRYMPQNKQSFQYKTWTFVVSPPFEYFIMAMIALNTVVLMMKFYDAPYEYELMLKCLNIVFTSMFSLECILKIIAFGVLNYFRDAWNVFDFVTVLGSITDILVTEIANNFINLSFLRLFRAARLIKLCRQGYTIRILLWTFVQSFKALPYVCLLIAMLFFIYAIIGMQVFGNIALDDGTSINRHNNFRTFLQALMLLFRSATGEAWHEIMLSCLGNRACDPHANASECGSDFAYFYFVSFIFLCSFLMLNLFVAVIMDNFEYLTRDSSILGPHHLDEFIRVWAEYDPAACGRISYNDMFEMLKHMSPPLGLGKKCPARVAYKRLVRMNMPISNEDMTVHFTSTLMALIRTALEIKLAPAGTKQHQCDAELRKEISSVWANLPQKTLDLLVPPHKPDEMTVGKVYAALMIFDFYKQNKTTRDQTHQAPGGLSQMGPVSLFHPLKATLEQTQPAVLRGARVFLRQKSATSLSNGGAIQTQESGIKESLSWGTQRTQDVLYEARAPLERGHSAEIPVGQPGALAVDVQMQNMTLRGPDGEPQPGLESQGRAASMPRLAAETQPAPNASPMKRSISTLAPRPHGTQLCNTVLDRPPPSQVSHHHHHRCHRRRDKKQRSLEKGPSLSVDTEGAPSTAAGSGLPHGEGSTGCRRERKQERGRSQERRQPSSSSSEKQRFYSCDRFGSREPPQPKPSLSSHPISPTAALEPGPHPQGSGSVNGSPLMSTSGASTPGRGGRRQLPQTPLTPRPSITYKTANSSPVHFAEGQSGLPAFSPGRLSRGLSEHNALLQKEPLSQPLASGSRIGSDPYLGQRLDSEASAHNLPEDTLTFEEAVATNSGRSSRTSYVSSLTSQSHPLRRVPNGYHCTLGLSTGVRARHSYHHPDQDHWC

ω-conotoxin MVIIA (from UniProt P05484 46-70) (peptide)
pEC50: 10.36
